Assays:
야생형의 SIRPα = target: T1, 야생형의 SIRPα (Homo sapiens (Human), UniProt P78324 31-149, limits assumed); assay: western blot
T1 construct: also called wtSIRPα; wild-type SIRPα

[1] = target: T2, 서열번호 2의 아미노산 서열을 포함하는 SIRPα 변이체 (Homo sapiens (Human), UniProt P78324 31-149); assay: indirect ELISA, vSIRPα (SEQ ID NO 2) coated at 1.0 ug/ml, anti-mouse IgG Fcγ-peroxidase secondary
T2 construct: Engineered SIRPα variant; also called vSIRPα; vSIRPα antigen
T2 chain: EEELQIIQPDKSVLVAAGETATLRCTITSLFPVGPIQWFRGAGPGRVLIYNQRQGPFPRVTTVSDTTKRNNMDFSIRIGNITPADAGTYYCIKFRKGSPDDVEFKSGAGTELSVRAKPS

- binding result (야생형의 SIRPα): no binding
- binding result [1]: binds
B1: 항-vSIRPα 단일클론 항체 (SIRPα 변이체 특이적인 단일클론 항체) (antibody, V domains shown)
VH: EVQLQQSGPELVKPGASVKISCKASGYSFTGYYMHWVKQSHVKSLEWIGRINPYNGATNYNQNFKDKASLTLDKSSSTAYVELHSLTSEDSAVYYCTRNDGYYWYFDVWGAGTTVTVSS
VL: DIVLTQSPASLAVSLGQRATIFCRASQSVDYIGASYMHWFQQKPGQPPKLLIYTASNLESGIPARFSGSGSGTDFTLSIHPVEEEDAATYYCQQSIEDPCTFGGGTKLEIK
notes: Two clones were selected; also called 제작된 2종 항체; 개발한 항체 2종

Reference: patent KR20240034954A (dated 2024)
